Laboratory results taken from PMC4490372, “Architecture of TFIIIC and its role in RNA polymerase III pre-initiation complex assembly” (Nature Communications, 2015).

B1: τ131 (123–566), TPR array, wild type [S. cerevisiae] / τ138 (641–693), τ131-Interaction Region (τIR) [S. cerevisiae] (parent complex)
chain 1: VLDPEVAQLLSQANEAFVRNDLQVAERLFNEVIKKDARNFAAYETLGDIYQLQGRLNDCCNSWFLAAHLNASDWEFWKIVAILSADLDHVRQAIYCFSRVISLNPMEWESIYRRSMLYKKTGQLARALDGFQRLYMYNPYDANILRELAILYVDYDRIEDSIELYMKVFNANVERREAILAALENALDSSDEESAAEGEDADEKEPLEQDEDRQMFPDINWKKIDAKYKCIPFDWSSLNILAELFLKLAVSEVDGIKTIKKCARWIQRRESQTFWDHVPDDSEFDNRRFKNSTFDSLLAAEKEKSYNIPIDIRVRLGLLRLNTDNLVEALNHFQCLYDETFSDVADLYFEAATALTRAEKYKEAIDFFTPLLSLEEWRTTDVFKPLARCYKEIESYETAKEFYELAIKSEPDDLDIRVSLAEVYYRLNDPETFKHMLVDVVEMR
chain 2: SKKATFTDVIHDTEIYFFDQTEKNRFHRGKKSVERIRKFQNRQKNAKIKASDD
B2: τ131 (123–566), TPR array, wild type [S. cerevisiae] / τ138 (546–693), eWH-τIR [S. cerevisiae] (parent complex)
chain 1: B1 chain 1
chain 2: SARSLRSLQRQRAILKVMNTIGGVAYLREQFYESVSKYMGSTTTLDKKTVRGDVDLMVESEKLGARTEPVSGRKIIFLPTVGEDAIQRYILKEKDSKKATFTDVIHDTEIYFFDQTEKNRFHRGKKSVERIRKFQNRQKNAKIKASDD

Variants of: B1
Assay: ITC; parent: 80 nM

Variant | Kd
chain 1 VLDPEVAQLLSQANEAFVRNDLQVAERLFNEVIKKDARNFAAYETLGDIYQLQGRLNDCCNSWFLAAHLNASDWEFWKIVAILSADLDHVRQAIYCFSRVISLNPMEWESIYRRSMLYKKTGQLARALDGFQRLYMYNPYDANILRELAILYVDYDRIEDSIELYMKVFNANVERREAILAALENALDSSDEESAAEGEDADEKEPLEQDEDRQMFPDINWKKIDAKYKCIPFDWSSLNILAELFLKLAVSEVDGIKTIKKCARWIQRRESQTFWDHVPDDSEFDNRRFKNSTFDSLLAAEKEKSYNIPIDIRVRLGLLRLNTDNLVEALNHFQCLYDETFSDVADLYFKAATALTRAEKYKEAIDFFTPLLSLEEWRTTDVFKPLARCYKEIESYETAKEFYELAIKSEPDDLDIRVSLAEVYYRLNDPETFKHMLVDVVEMR [chain 1 E350K] | 833 nM
chain 1 VLDPEVAQLLSQANEAFVRNDLQVAERLFNEVIKKDARNFAAYETLGDIYQLQGRLNDCCNSWFLAAHLNASDWEFWKIVAILSADLDHVRQAIYCFSRVISLNPMEWESIYRRSMLYKKTGQLARALDGFQRLYMYNPYDANILRELAILYVDYDRIEDSIELYMKVFNANVERREAILAALENALDSSDEESAAEGEDADEKEPLEQDEDRQMFPDINWKKIDAKYKCIPFDWSSLNILAELFLKLAVSEVDGIKTIKKCARWIQRRESQTFWDHVPDDSEFDNRRFKNSTFDSLLAAEKEKSYNIPIDIRVRLGLLRLNTDNLVEALNHFQCLYDETFSDVADLYFEAATALTRAEKYKEAIDFFTPLLSLEKWRTTDVFKPLARCYKEIESYETAKEFYELAIKSEPDDLDIRVSLAEVYYRLNDPETFKHMLVDVVEMR [chain 1 E376K] | 833 nM
chain 1 VLDPEVAQLLSQANEAFVRNDLQVAERLFNEVIKKDARNFAAYETLGDIYQLQGRLNDCCNSWFLAAHLNASDWEFWKIVAILSADLDHVRQAIYCFSRVISLNPMEWESIYRRSMLYKKTGQLARALDGFQRLYMYNPYDANILRELAILYVDYDRIEDSIELYMKVFNANVERREAILAALENALDSSDEESAAEGEDADEKEPLEQDEDRQMFPDINWKKIDAKYKCIPFDWSSLNILAELFLKLAVSEVDGIKTIKKCARWIQRRESQTFWDHVPDDSEFDNRRFKNSTFDSLLAAEKEKSYNIPIDIRVRLGLLRLNTDNLVEALNHFQCLYDETFSDVADLYFEAATALTRAEKYKEAIDFFTPLLSLKEWRTTDVFKPLARCYKEIESYETAKEFYELAIKSEPDDLDIRVSLAEVYYRLNDPETFKHMLVDVVEMR [chain 1 E375K] | 89 nM

Variants of: B2
Assay: ITC; parent: 100 nM

Variant | Kd
chain 1 VLDPEVAQLLSQANEAFVRNDLQVAERLFNEVIKKDARNFAAYETLGDIYQLQGRLNDCCNSWFLAAHLNASDWEFWKIVAILSADLDHVRQAIYCFSRVISLNPMEWESIYRRSMLYKKTGQLARALDGFQRLYMYNPYDANILRELAILYVDYDRIEDSIELYMKVFNANVERREAILAALENALDSSDEESAAEGEDADEKEPLEQDEDRQMFPDINWKKIDAKYKCIPFDWSSLNILAELFLKLAVSEVDGIKTIKKCARWIQRRESQTFWDHVPDDSEFDNRRFKNSTFDSLLAAEKEKSYNIPIDIRVRLGLLRLNTDNLVEALNHFQCLYDETFSDVADLYFEAATALTRAEKYKEAIDFFTPLLSLEKWRTTDVFKPLARCYKEIESYETAKEFYELAIKSEPDDLDIRVSLAEVYYRLNDPETFKHMLVDVVEMR [chain 1 E376K] | 971 nM
chain 1 VLDPEVAQLLSQANEAFVRNDLQVAERLFNEVIKKDARNFAAYETLGDIYQLQGRLNDCCNSWFLAAHLNASDWEFWKIVAILSADLDHVRQAIYCFSRVISLNPMEWESIYRRSMLYKKTGQLARALDGFQRLYMYNPYDANILRELAILYVDYDRIEDSIELYMKVFNANVERREAILAALENALDSSDEESAAEGEDADEKEPLEQDEDRQMFPDINWKKIDAKYKCIPFDWSSLNILAELFLKLAVSEVDGIKTIKKCARWIQRRESQTFWDHVPDDSEFDNRRFKNSTFDSLLAAEKEKSYNIPIDIRVRLGLLRLNTDNLVEALNHFQCLYDETFSDVADLYFKAATALTRAEKYKEAIDFFTPLLSLEEWRTTDVFKPLARCYKEIESYETAKEFYELAIKSEPDDLDIRVSLAEVYYRLNDPETFKHMLVDVVEMR [chain 1 E350K] | 415 nM
